In one assay the target is human CGRP receptor (human, UniProt Q16602 23-461; O60894 27-148). The assay is described as follows: cell-based or functional assay.
For another assay, the target named is T1, human PAC1 receptor (human, UniProt P41586 21-468).
T1 sequence: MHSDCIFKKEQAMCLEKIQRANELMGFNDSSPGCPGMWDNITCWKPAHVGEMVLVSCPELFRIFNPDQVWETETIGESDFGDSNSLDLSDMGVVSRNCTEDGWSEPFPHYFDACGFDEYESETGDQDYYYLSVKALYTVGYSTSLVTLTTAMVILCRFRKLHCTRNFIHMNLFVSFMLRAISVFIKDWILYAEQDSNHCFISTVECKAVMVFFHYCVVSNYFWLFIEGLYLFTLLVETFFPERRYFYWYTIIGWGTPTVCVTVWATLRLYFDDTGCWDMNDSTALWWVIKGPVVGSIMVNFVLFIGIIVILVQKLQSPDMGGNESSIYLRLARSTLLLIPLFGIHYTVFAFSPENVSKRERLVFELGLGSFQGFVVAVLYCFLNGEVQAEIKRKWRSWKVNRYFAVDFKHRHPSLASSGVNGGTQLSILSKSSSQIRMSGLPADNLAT
The assay can be described thus: cell-based or functional assay.

Residue numbers refer to the chain shown, from its start.

Sequence of human CGRP receptor (Q16602 23-461 limits assumed, chain 1 of 2): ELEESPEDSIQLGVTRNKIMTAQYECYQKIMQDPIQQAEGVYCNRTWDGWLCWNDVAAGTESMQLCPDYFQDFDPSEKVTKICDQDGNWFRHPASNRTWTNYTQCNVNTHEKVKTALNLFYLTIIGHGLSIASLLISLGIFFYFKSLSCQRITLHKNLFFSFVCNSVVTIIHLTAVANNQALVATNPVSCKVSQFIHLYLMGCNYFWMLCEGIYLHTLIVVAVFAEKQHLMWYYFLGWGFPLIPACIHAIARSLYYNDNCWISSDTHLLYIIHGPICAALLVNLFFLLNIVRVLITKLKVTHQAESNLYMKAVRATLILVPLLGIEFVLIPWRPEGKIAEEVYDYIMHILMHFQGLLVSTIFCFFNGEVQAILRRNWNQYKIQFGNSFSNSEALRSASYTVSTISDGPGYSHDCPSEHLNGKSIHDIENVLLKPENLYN
Sequence of human CGRP receptor (O60894 27-148 limits assumed, chain 2 of 2): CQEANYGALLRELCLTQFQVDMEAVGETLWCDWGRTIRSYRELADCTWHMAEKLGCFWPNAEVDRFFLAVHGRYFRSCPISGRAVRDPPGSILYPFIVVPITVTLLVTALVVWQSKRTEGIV

B1: iPS:326626 (bispecific antibody, human IgG2, kappa, lambda)
light 1: not shown
heavy 1: QVQLQQSGPGLVKPSQTLSLTCAISGDSVSSNSATWNWIRQSPSRGLEWLGRTYYRSKWSNHYAVSVKSRITINPDTSKSQFSLQLNSVTPEDTAVYYCARGTWKQLWFLDHWGQGTLVTVSSASTKGPSVFPLAPCSRSTSESTAALGCLVKDYFPEPVTVSWNSGALTSGVHTFPAVLQSSGLYSLKSVVTVPSSNFGTQTYTCNVDHKPSNTKVDKTVERKCCVECPPCPAPPVAGPSVFLFPPKPKDTLMISRTPEVTCVVVDVSHEDPEVQFNWYVDGVEVHNAKTKPREEQFNSTFRVVSVLTVVHQDWLNGKEYKCKVSNKGLPAPIEKTISKTKGQPREPQVYTLPPSREEMTKNQVSLTCLVDGFYPSDIAVEWESNGQPENNYDTTPPMLDSDGSFFLYSDLTVDKSRWQQGNVFSCSVMHEALHNHYTQKSLSLSPGK
light 2: not shown
heavy 2: not shown
On to B1, for which the “% inhibition of human CGRPR” value with human CGRP receptor was found to be 96%. The “% inhibition of human PAC1” value in the assay with human PAC1 receptor turned out to be 86%.

B2: iPS:326648 (bispecific antibody, human IgG2, kappa, lambda)
light 1: EIVLTQSPATLSLSPGERATLSCRASQSVGRSLHWYQQKPGQAPRLLIKYASQSLSGIPARFSGSGSGTDFTLTISSLEPEDFAVYYCHQSSRLPFTFGPGTKVDIKRTVAAPSVFIFPPSDEQLKSGTASVVCLLNNFYPREAKVQWKVDNALQSGNSQESVTEQDSKDSTYSLESTLTLSKADYEKHKVYACEVTHQGLSSPVTKSFNRGEC
heavy 1: QVQLVESGGGVVQPGRSLRLSCAASGFTFSRFAMHWVRQAPGKGLEWVAVISYDGGNKYYAESVKGRFTISRDNSKNTLYLQMNSLRAEDTALFYCARGYDVLTGYPDYWGQGTLVTVSSASTKGPSVFPLAPCSRSTSESTAALGCLVKDYFPEPVTVSWNSGALTSGVHTFPAVLQSSGLYSLKSVVTVPSSNFGTQTYTCNVDHKPSNTKVDKTVERKCCVECPPCPAPPVAGPSVFLFPPKPKDTLMISRTPEVTCVVVDVSHEDPEVQFNWYVDGVEVHNAKTKPREEQFNSTFRVVSVLTVVHQDWLNGKEYKCKVSNKGLPAPIEKTISKTKGQPREPQVYTLPPSREEMTKNQVSLTCLVDGFYPSDIAVEWESNGQPENNYDTTPPMLDSDGSFFLYSDLTVDKSRWQQGNVFSCSVMHEALHNHYTQKSLSLSPGK
light 2: not shown
heavy 2: not shown
For B2, in the assay with human CGRP receptor, the “% inhibition of human CGRPR” value turned out to be 73%. Further, in the assay with human PAC1 receptor, the “% inhibition of human PAC1” value was 92%.

B3: iPS:327019 (bispecific antibody, human IgG1, kappa, N297G)
light 1: B2 light 1
heavy 1: not shown
light 2: EIVLTQSPGTLSLSPGERATLSCRASQSVSSGYLTWYQQKPGQAPRLLIYGASSRATGIPDRFSGSGSGTDFTLTISRLEPEDFAVYYCQQYGNSLSRFGQGTKLEIKRTVAAPSVFIFPPSDEQLKSGTASVVCLLNNFYPREAKVQWKVDNALQSGNSQESVTEQDSKDSTYSLKSTLTLSKADYEKHKVYACEVTHQGLSSPVTKSFNRGEC
heavy 2: not shown
B3: the “% inhibition of human CGRPR” value with human CGRP receptor turned out to be 65%. For the same molecule, the “% inhibition of human PAC1” value with human PAC1 receptor is 79%.

B4: iPS:327026 (bispecific antibody, human IgG1, kappa, N297G)
light 1: B2 light 1 with P100E
heavy 1: not shown
light 2: B3 light 2 with Q101K
heavy 2: not shown
On to B4, for which the “% inhibition of human CGRPR” value with human CGRP receptor was found to be 81%. In addition, the “% inhibition of human PAC1” value in the assay with human PAC1 receptor was found to be 78%.

B5: iPS:328047 (bispecific antibody, human IgG1, kappa, lambda, N297G)
light 1: DIQMTQSPSSLSASVGDRITITCRASQSISRYLNWYQQKPGKAPKLLIYAASSLQSGIPSRFSGSGSGTDFTLTINSLQPEDFATYFCQQSYSPPFTFGQGTKVDIKRTVAAPSVFIFPPSDEQLKSGTASVVCLLNNFYPREAKVQWKVDNALQSGNSQESVTEQDSKDSTYSLESTLTLSKADYEKHKVYACEVTHQGLSSPVTKSFNRGEC
heavy 1: not shown
light 2: QSVLTQPPSVSAAPGQKVTISCSGSSSNIGNNYVSWYQQLPGTAPKLLIYDNNKRPSGIPDRFSGSKSGTSTTLGITGLQTGDEADYYCGTWDSRLSAVVFGGGTKLTVLGQPKANPTVTLFPPSSEELQANKATLVCLISDFYPGAVTVAWKADGSPVKAGVETTKPSKQSNNKYAAKSYLSLTPEQWKSHRSYSCQVTHEGSTVEKTVAPTECS
heavy 2: QVQLVESGGGVVQPGRSLRLSCAASGFTFSSFGMHWVRQAPGKGLEWVAVISFDGSIKYSVDSVKGRFTISRDNSKNTLFLQMNSLRAEDTAVYYCARDRLNYYDSSGYYHYKYYGMAVWGQGTTVTVSSASTKGPSVFPLAPSSKSTSGGTAALGCLVKDYFPEPVTVSWNSGALTSGVHTFPAVLQSSGLYSLESVVTVPSSSLGTQTYICNVNHKPSNTKVDKKVEPKSCDKTHTCPPCPAPELLGGPSVFLFPPKPKDTLMISRTPEVTCVVVDVSHEDPEVKFNWYVDGVEVHNAKTKPCEEQYGSTYRCVSVLTVLHQDWLNGKEYKCKVSNKALPAPIEKTISKAKGQPREPQVYTLPPSRKEMTKNQVSLTCLVKGFYPSDIAVEWESNGQPENNYKTTPPVLKSDGSFFLYSKLTVDKSRWQQGNVFSCSVMHEALHNHYTQKSLSLSPGK
Turning to B5, the “% inhibition of human CGRPR” value with human CGRP receptor came to 78%. The “% inhibition of human PAC1” value in the assay with human PAC1 receptor came out at 33%.

B6: iPS:328051 (bispecific antibody, human IgG1, kappa, lambda, N297G)
light 1: not shown
heavy 1: not shown
light 2: B5 light 2
heavy 2: B5 heavy 2 with E370K
Regarding B6, the “% inhibition of human CGRPR” value with human CGRP receptor is 77%. Also, in the assay with human PAC1 receptor, the “% inhibition of human PAC1” value was found to be 21%.

B7: iPS:327023 (bispecific antibody, human IgG1, kappa, N297G)
light 1: B5 light 1 with Q100E
heavy 1: not shown
light 2: B3 light 2 with Q101K
heavy 2: not shown
B7: the “% inhibition of human CGRPR” value with human CGRP receptor turned out to be 74%. The “% inhibition of human PAC1” value with human PAC1 receptor is 32%.

B8: iPS:328048 (bispecific antibody, human IgG1, kappa, lambda, N297G)
light 1: not shown
heavy 1: not shown
light 2: B5 light 2
heavy 2: B5 heavy 2
Turning to B8, the “% inhibition of human CGRPR” value with human CGRP receptor amounted to 69%. Besides, the “% inhibition of human PAC1” value with human PAC1 receptor is 9%.

B9: iPS:328049 (bispecific antibody, human IgG1, kappa, lambda, N297G)
light 1: not shown
heavy 1: not shown
light 2: B5 light 2 with G103K
heavy 2: B5 heavy 2 with G44E
As for B9, the “% inhibition of human CGRPR” value with human CGRP receptor is 92%. The “% inhibition of human PAC1” value with human PAC1 receptor amounted to 13%.

B10: iPS:328050 (bispecific antibody, human IgG1, kappa, lambda, N297G)
light 1: B5 light 1
heavy 1: not shown
light 2: B5 light 2
heavy 2: B5 heavy 2 with E370K
As to B10, the “% inhibition of human CGRPR” value in the assay with human CGRP receptor was determined as 80%. The “% inhibition of human PAC1” value with human PAC1 receptor was 11%.

B11: iPS:327017 (bispecific antibody, human IgG1, kappa, N297G)
light 1: not shown
heavy 1: not shown
light 2: B3 light 2
heavy 2: not shown
Take B11: the “% inhibition of human CGRPR” value in the assay with human CGRP receptor amounted to 67%. Further, the “% inhibition of human PAC1” value in the assay with human PAC1 receptor came out at 27%.

B12: iPS:327018 (bispecific antibody, human IgG1, kappa, N297G)
light 1: DIQLTQSPSFLSASVGDRVTITCRASQSIGRSLHWYQQKPGKAPKLLIKYASQSLSGVPSRFSGSGSGTEFTLTISSLQPEDFATYYCHQSSRLPFTFGPGTKVDIKRTVAAPSVFIFPPSDEQLKSGTASVVCLLNNFYPREAKVQWKVDNALQSGNSQESVTEQDSKDSTYSLESTLTLSKADYEKHKVYACEVTHQGLSSPVTKSFNRGEC
heavy 1: not shown
light 2: B3 light 2
heavy 2: not shown
Consider B12, for which the “% inhibition of human CGRPR” value with human CGRP receptor was found to be 68%. In the assay with human PAC1 receptor, the “% inhibition of human PAC1” value amounted to 17%.

B13: iPS:327024 (bispecific antibody, human IgG1, kappa, N297G)
light 1: not shown
heavy 1: not shown
light 2: B3 light 2 with Q101K
heavy 2: not shown
Take B13: the “% inhibition of human CGRPR” value in the assay with human CGRP receptor was determined as 75%. The “% inhibition of human PAC1” value with human PAC1 receptor was determined as 7%.

B14: iPS:327091 (bispecific antibody, human IgG1, kappa, N297G)
light 1: not shown
heavy 1: not shown
light 2: B3 light 2
heavy 2: not shown
B14: the “% inhibition of human CGRPR” value in the assay with human CGRP receptor came out at 65%. Further, in the assay with human PAC1 receptor, the “% inhibition of human PAC1” value is 67%.

B15: iPS:327092 (bispecific antibody, human IgG1, kappa, N297G)
light 1: not shown
heavy 1: not shown
light 2: B3 light 2
heavy 2: not shown
Take B15: the “% inhibition of human CGRPR” value with human CGRP receptor was 73%. Besides, in the assay with human PAC1 receptor, the “% inhibition of human PAC1” value came out at 52%.

These data come from patent US20170306033A1 (Amgen, published 2017).
